Source: the supplement of paper PMC6755084

B1: minF1; a variant is named by its letters at N, in order (parent)
chain: GAGACCGCAACTGAAAAGTTGTTNNNNAANNNNGGNTNNATTTCTGCACGTAGAAGCAAAAGGC

Variants of: B1
Assay: fraction ligated after 30 min (ligated reads / total reads); higher = more ligase activity
Conditions: with F1*subA RNA substrate (template-directed ligation), 42 °C
How it was run: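 Fraction ligated for every variant was calculated as the share of total reads that came from ligated RNA. Minimized ligase ribozyme variants were made from oligo-pool templates by PCR amplification, T7 transcription and gel purification. After gel separation of ligated and unligated RNAs, reverse transcription with barcoded primers and MiSeq sequencing followed. Only core bases at quality ≥30 passed filtering.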

Variant | fraction ligated
ATCGATTGTGA | 0.00257
ATCATGGAGTT A28G G34T T37G | 0.00165
ATCATGGAGTT G34T T37G | 0.00293
ATCGAGGTGTG | 0.00858
ATCGAGGTGTA | 0.00324
ATCAGGAGTGA A29T | 0.00323
ATCAGGATGTA A28G | 0.00247
ATCAGATGTGA A28G | 0.00527
ATCATGGTGTA | 0.00395
ATCATGGTGTG | 0.00925
ATCAATGGGTT G34A G35T T37G | 0.00168
ATGAGGATGTG A29T | 0.00971
ATCAATTGTGA | 0.00256
ATGAGGATGTA | 0.00328
ATGAGGATGTG | 0.00619
ATCAGGTGTGA A28G A29T | 0.00216
ATCGAGTGTGA | 0.00242
ATCGAGGAGTA G34T | 0.00121
ATGATATGTGA | 0.00429
ATCAGGATGTA A29T | 0.00407
ATCATGGAGTA A28G | 0.00253
ATCATGAGTGA | 0.00331
ATGAGGATTGA | 0.00566
ATCAATGGGTT A28G G34A T37G | 0.00259

Variant | fraction ligated
ATCGGGATTGA A29T | 0.00409
ATCGAGGTTGA | 0.00313
ATCAATGGGTT G34A T37G | 0.001
ATCAGATGTGA A28G A29T | 0.00278
ATCAGATGTGA A28G A29G | 0.00309
ATCGGGATTGA | 0.00341
ATCGATGGGTT G34A G35T T37G A40G | 0.000298
ATCGTGAGTGA | 0.00262
ATGATGGAGTA | 0.00203
ATGATGGAGTG | 0.00409
ATCATGGAGTT A28G G34T T37G A40G | 0.00132
ATCAATGTTGA | 0.00356
ATCGATGTGTA | 0.00271
ATCGATGTGTG | 0.00543
ATCAATGGGTT A28G G34T T37G A40G | 0.00157
ATGATGGGTGA | 0
ATGATGTGTGA | 0.0027
ATGAGGATGTA A29T | 0.00295
ATCATGTGTGA | 0.00648
ATCAGGTGTGA A28G | 0.00256
ATCATGGAGTG A28G | 0.00442
ATGAGGAGTGA A29T | 0.0018
ATCATGGAGTT G34T T37G A40G | 0.00188
ATCGAGGATGA | 0.00383

Variant | fraction ligated
ATCGATATGTA | 0.0031
ATCGATATGTG | 0.00524
ATCAGATGTGA A28T A29G | 0.0131
ATCGATGTTGA | 0.00239
ATCATGGAGTA A28G G34T | 0.00586
ATCAATGGGTT A28G G34A T37G A40G | 0.000541
ATCGGGAGTGA A29T | 0.00273
ATGATGATGTA | 0.00247
ATGATGATGTG | 0.00639
ATCGATGGGTA G34T | 0.00207
ATCGATGGGTA G34A | 0.00165
ATCGGATGTGA | 0.00494
ATCGTGTGTGA | 0.00325
ATCATGATTGA A28G | 0.00281
ATCGATGAGTT G34T T37G A40G | 0.00104
ATCGGGAGTGA | 0.00227
ATCAGGTGTGA A29T | 0.00874
ATGAGGATTGA A29T | 0.00582
ATCAGGAGTGA A28G | 0.0026
ATCAGATGTGA | 0.00333
ATCATGGGTGA | 0.00433
ATCGTGGATGA | 0.00177
ATCATGGGTGA A28G | 0.00379
ATCAGGATTGA | 0.00379

Variant | fraction ligated
ATCGGGATGTG | 0.0285
ATCGGGATGTA | 0.00428
ATCAATGGGTG A28G G34A | 0.00717
ATCAATGGGTG A28G G34T | 0.00456
ATCATGATGTG A28G | 0.0138
ATCAATGGGTT G34T T37G A40G | 0.00223
ATGATGGAGTA G34T | 0.00469
ATCAGGAGTGA | 0.00543
ATCGTGGTGTG | 0.00802
ATCGTGGTGTA | 0.00478
ATCGATGGGTT G34A T37G | 0.00243
ATCATGGATGA | 0.00299
ATGAGATGTGA A28T A29G | 0.016
ATCAGGTGTGA | 0.00443
ATCAATGGGTT G34T T37G | 0.00279
ATCAGGATGTG A29T | 0.0272
ATCATGATTGA | 0.00257
ATCAATGGGTT A28G G34T T37G | 0.00191
ATCATGGAGTG | 0.00597
ATCATGGAGTA | 0.00426
ATCGTGGGTGA | 0.00142
ATCAGGATGTA | 0.00297
ATCAGGATGTG | 0.00943
ATCGATATTGA | 0.00165

Variant | fraction ligated
ATCGTGGAGTG G34T | 0.0139
ATGAGGTGTGA | 0.00168
ATCAATGGGTG G34T | 0.00622
ATCAATGGGTG G34A | 0.00542
ATCAATGTGTG A28G | 0.00324
ATCGTATGTGA | 0.00154
ATCAGGATTGA A29T | 0.00634
ATGATGGAGTT G34T T37G | 0.00184
ATCAGGATGTA A28G A29T | 0.00157
ATCGGATGTGA A28T A29G | 0.012
ATGATGGATGA | 0.00302
ATCAGGATTGA A28G A29T | 0.00153
ATCAATGGTGA | 0.0039
ATCAATTGTGA A28G | 0.00238
ATCATGAGTGA A28G | 0.00204
ATCATGATGTA A28G | 0.00257
ATCGATGATGA | 0.00308
ATGAGGAGTGA | 0.00532
ATCGGATGTGA A29G | 0.00359
ATCGGATGTGA A29T | 0.00285
ATGATGGTTGA | 0.00283
ATGAGGTGTGA A29T | 0.00679
ATCATGGAGTG A28G G34T | 0.0152
ATCAATGTTGA A28G | 0.0018

Variant | fraction ligated
ATCGGGTGTGA A29T | 0.00298
ATCGATGAGTA G34T | 0.00167
ATCAGGAGTGA A28G A29T | 0.0016
ATCGGGTGTGA | 0.00323
ATCGATGGGTG G34T | 0.00494
ATCGATGGGTG G34A | 0.00444
ATCATGGTTGA A28G | 0.00132
ATCGATGAGTG G34T | 0.0033
ATCGAGGGTGA | 0.00167
ATCGATAGTGA | 0.00296
ATCGAGGAGTT G34T T37G A40G | 0.000736
ATCGTGGAGTT G34T T37G A40G | 0.00133
ATCAGGATTGA A28G | 0.0019
ATCATATGTGA | 0.00281
ATCAGATGTGA A29G | 0.0024
ATCAGATGTGA A29T | 0.00586
ATCATGGTGTA A28G | 0.0034
ATCGATGGTGA | 0.00498
ATCATGGAGTG G34T | 0.0119
ATCAATGGGTA G34T | 0.0029
ATCAATGGGTA G34A | 0.00177
ATCAGGATGTG A28G A29T | 0.00377
ATGATGGAGTG G34T | 0.011
ATCGAGGAGTT G34T T37G | 0.00239

Variant | fraction ligated
ATCGATGGGTG | 0.00493
ATCGATGGGTA | 0.000742
ATGATGAGTGA | 0.00204
ATCGATGGGTT G34T T37G A40G | 0.00104
ATCAATGTGTA A28G | 0.00287
ATCAATGGGTT A28G G34A G35T T37G | 0.00268
ATGAGATGTGA | 0.00646
ATCGTGGAGTA G34T | 0.0058
ATCAATGGGTG A28G | 0.00414
ATCAATGGGTA | 0.00273
ATCAATGGGTG | 0.00492
ATCAATGGTGA A28G | 0.00319
ATCGTGATTGA | 0.00326
ATCATGGTTGA | 0.0043
ATCATGTGTGA A28G | 0.00186
ATGATGATTGA | 0.00379
ATCGATGGGTT G34T T37G | 0.00156
ATCGATGAGTA | 0.00221
ATCGATGAGTG | 0.00474
ATCGATGGGTT G34A T37G A40G | 0.00135
ATCAATGGGTT G34A G35T T37G A40G | 0.00189
ATCGATGAGTT G34T T37G | 0.00178
ATGATGGAGTT G34T T37G A40G | 0.0011
